The assay has as its target PSA (prostate specific antigen) (UniProt P07288). Nature of the assay: cell-based or functional assay.
Chain of UniProt P07288 (P07288 25-261 limits assumed): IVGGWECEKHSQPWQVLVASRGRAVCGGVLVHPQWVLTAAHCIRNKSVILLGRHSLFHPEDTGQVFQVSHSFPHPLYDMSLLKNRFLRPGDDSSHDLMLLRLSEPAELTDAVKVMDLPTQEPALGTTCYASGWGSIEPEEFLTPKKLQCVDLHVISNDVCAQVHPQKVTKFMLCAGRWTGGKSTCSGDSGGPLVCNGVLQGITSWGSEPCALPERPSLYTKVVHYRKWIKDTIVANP

For the substance “Analog 221 (211/amide or nonester) Mu-His-Ser-Ser-Lys(Fmoc)-Leu-Gln-Leu (peptide)”, the cytotoxicity IC50, 48 hour exposure, Prostate DuPro cells (trace PSA) was 13 µM; the cytotoxicity IC50, 48 hour exposure, Prostate LnCAP cells (positive PSA) is 0.8 µM; the cytotoxicity IC50, 48 hour exposure, Prostate PC3 cells (negative PSA, control) is over 21 µM.

For the origin of these results see patent publication US20180263927A1.
